Measurements: US10640563B2, “Anti-B7-H3 antibodies and antibody drug conjugates” (AbbVie Inc., priority 2016, dated 2020)
Where a chain is given by its changes, count along the chain named.

B1: chAb18-CZ (conjugate)
VH: QVQLQQSAAELARPGASVKMSCKASGYSFTSYTIHWVKQRPGQGLEWIGYINPNSRNTDYNQKFKDETTLTADRSSSTAYMQLISLTSEDSAVYYCARYSGSTPYWYFDVWGAGTTVTVSS
VL: QIVLTQSPAILSASPGEKVTMTCRASSSVSYMNWYQQKPGSSPKPWIYATSNLASGVPARFSVSVSGTSHSLTISRVEAEDAATYYCQQWSSNPLTFGAGTKLELK
B2: chAb3-CZ (conjugate)
VH: QVQLQQPGAELVKPGASVKLSCKASGYTFSSYWMHWVKQRPGQGLEWIGLIHPDSGSTNYNEMFKNKATLTVDRSSSTAYVQLSSLTSEDSAVYFCAGGGRLYFDYWGQGTTLTVSS
VL: DVVMTQTPLSLPVSLGDQASISCRSSQSLVHSNGDTYLRWYLQKPGQSPKLLIYKVSNRFSGVPDRFSGSGSGTDFTLKITRVEAEDLGVYFCSQSTHVPYTFGGGTKLEIK
modifications: drug conjugate; Synthetic chAb3 VH amino acid sequence; Synthetic chAb3 VL amino acid sequence
B3: chAb13-CZ (conjugate)
VH: DVQLQESGPDLVKPSQSLSLTCTVTGYSITSGYSWHWIRQFPGNKLEWMGYIHSSGSTNYNPSLKSRISINRDTSKNQFFLQLNSVTTEDTATYYCAGYDDYFEYWGQGTTLTVSS
VL: DIVMTQSQKFMSTSVGDRVSVTCKASQNVGFNVAWYQQKPGQSPKALIYSASYRYSGVPDRFTGSGSGTDFTLTISNVQSEDLAEYFCQQYNSYPFTFGSGTKLEIK
B4: chAb6-CZ (conjugate)
VH: QVQLQQSGAELMKPGASVKISCKATGYTFSRYWIEWVKQRPGHGLEWIGEILPGSGSTNYNEKFKGKATFTADTSSNTAYMQVSSLTSEDSAVHYCARRGYGYVPYALDYWGQGTSVTVSS
VL: EIQMTQTTSSLSASLGDRVTISCRASQDISNSLNWYQQKPDGTVNLLIYYTSRLYSGVPSRFSGSGSGTDYSLTISNLEQEDIATYFCQQGNTLPYTFGGGTKLEIK
B5: chAb16-CZ (conjugate)
VH: EVKLLESGGGLVQPGGSLKLSCAASGFDFSRYWMSWVRQAPGKGLEWIGEINPDSSTINYTPSLKDKFIISRDNAKNTLYLQMSKVRSEDTALYYCARPGFGNYIYAMDYWGQGTSVTVSS
VL: B4 VL with E1D, S22N, S32F, N45K, S56L, Y96P
B6: chAb14-CZ (conjugate)
VH: EVKLVESGGGLVKPGGSLKLSCAASGFTFSSYGMSWVRQTPEKRLEWVATISGGGTNTYYPDSVEGRFTISRDNAKNFLYLQMSSLRSEDTALYYCARHYGSQTMDYWGQGTSVTVSS
VL: DIQMTQSPASLSASVGETVTITCRTSGNIHNYLTWYQQKQGKSPQLLVYNAKTLADGVPSRFSGSGSGTQFSLKINSLQPEDFGSYYCQHFWSIMWTFGGGTKLEIK
B7: chAb2-CZ (conjugate)
VH: QVQLQQPGAELVKPGASVKLSCKASGYTFTSYWMHWVKQRPGQGLEWIGMIHPDSGTTNYNEKFRSKATLTVDKSSSTAYMQLSSLTSEDSAVYYCAVYYGSTYWYFDVWGTGTTVTVSS
VL: B2 VL with S20Y, S32I, D35N, R39H, L42R, T81S, V99F, Y101F, G105S

System: HCC38 cell line
Experiment: Cell cytotoxicity of ADCs in HCC38 cell line
Format: cell-based
Settings: Table 10; CZ conjugates
Protocol: The humanization of chAb18 generated 10 variants (described above in Table 9) that retained binding to human and cyno B7-H3 as assessed by FACS (the method of which is described above in Example 6). These variants were further characterized for binding by SPR and were successfully conjugated to the Bcl-xL inhibitor synthon CZ using Method A (described above) and assessed for cell cytotoxicity as described in Example 7. The parental chAb18 from which the variants were derived was also tested as a comparator. All humanized variants had similar binding properties as assessed by biacore, and retained binding activity to cell surface expressed as conjugates with the CZ synthon. The cytotoxicity of all of the variants as CZ synthons were similar to the chAb18 from which they were derived.
Humanized chAb18 variants were conjugated to the CZ synthon and tested for cytotoxicity in HCC38 cell line.

| Molecule | IC50 |
| --- | --- |
| B1 | 0.28 nM |

Same assay, conditions: Table 14; CZ conjugates

| Molecule | IC50 |
| --- | --- |
| B2 | 0.17 nM |

System: HCC38 (breast cancer) cells
Experiment: In vitro cell viability assay (CellTiter-Glo), HCC38
Format: cell-based, human
Settings: ADC with synthon CZ; HCC38 breast cancer cells; viability after 5 days; read-out: Cytotoxicity (HCC38 cell line IC50nM)
Protocol: (§1) Nine anti-B7-H3 chimeric antibodies were conjugated to the Bcl-xL inhibiting (Bcl-xLi) synthon CZ (Example 2.1) using conjugation Method A described below. The resulting ADCs (anti-B7-H3 antibodies conjugated to synthon CZ) were tested for binding to cell surface human B7-H3 by FACS (as described in Example 6) and for cell cytotoxicity in cell lines expressing B7-H3. […] Table 6 provides cell surface binding and cytotoxicity activity of anti-B7-H3 chimera ADCs against breast cancer cell HCC38 expressing human B7-H3.
The tumor cell lines HCC38 (breast cancer), NCI-H1650 (NSCLC) and NCI-H847 (small cell lung cancer cell line) were obtained from American Type Culture Collection (ATCC). Cells were grown in 96-well culture plates using recommended growth media overnight at a density of 5×10^3 (HCC38) or 20×10^3 (NCI-H847) or 40×10^3 (NCI-H1650) per well. The following day, treatments were added in fresh media to triplicate wells. Cellular viability was determined 5 days later using the CellTiter-Glo Luminescent Cell Viability Assay kit (Promega), as directed in the manufacturer's protocol. Cell viability was assessed as percentage of control untreated cells.

| Molecule | IC50 |
| --- | --- |
| B1 | 0.28 nM |
| B3 | 0.18 nM |
| B4 | 81 nM |
| B5 | 21.9 nM |
| B6 | 2.01 nM |
| B7 | 4.77 nM |
| B2 | 0.17 nM |

System: not listed separately
Experiment: Size exclusion chromatography, % aggregate of ADC
Format: physicochemical
Settings: ADC with synthon CZ, conjugation Method A
Protocol: The DAR and percentage aggregation of ADCs synthesized were determined by LC-MS and size exclusion chromatography (SEC), respectively.
Size exclusion chromatography was performed using a Shodex KW802.5 column in 0.2 M potassium phosphate pH 6.2 with 0.25 mM potassium chloride and 15% IPA at a flow rate of 0.75 ml/min. The peak area absorbance at 280 nm was determined for each of the high molecular weight and monomeric eluents by integration of the area under the curve. The % aggregate fraction of the conjugate sample was determined by dividing the peak area absorbance at 280 nm for the high molecular weight eluent by the sum of the peak area absorbances at […] of the high molecular weight and monomeric eluents multiplied by 100%.

| Molecule | % agg by SEC |
| --- | --- |
| B1 | 4.3% |
| B3 | 8.3% |
| B4 | 0.5% |
| B5 | 2.3% |
| B6 | 1.9% |
| B7 | 5.9% |
| B2 | 6.3% |

System: not listed separately
Experiment: Observation after conjugation to synthon (Method A)
Format: physicochemical
Settings: after conjugation to Bcl-xLi synthon CZ
Protocol: as §1
A solution of Bond-Breaker™ tris(2-carboxyethyl)phosphine (TCEP) solution (10 mM, 0.017 mL) was added to a solution of antibody (10 mg/mL, 1 mL) preheated to 37° C. The reaction mixture was kept at 37° C. for 1 hour. The solution of reduced antibody was added to a solution of synthon (3.3 mM, 0.160 mL in DMSO) and gently mixed for 30 minutes. The reaction solution was loaded onto a desalting column (PD10, washed with Dulbecco's phosphate-buffered saline [DPBS] 3× before use), followed by DPBS (3 mL). The purified ADC solution was filtered through a 0.2 micron, low protein-binding 13 mm syringe-filter and stored at 4° C.

| Molecule | Conjugation observation |
| --- | --- |
| B1 | Clear |
| B3 | Clear |
| B4 | Precipitates |
| B5 | Precipitates |
| B6 | Clear |
| B7 | Precipitates |
| B2 | Clear |

System: NCI-H146 xenograft
Experiment: NCI-H146 small cell lung cancer xenograft efficacy
Format: in vivo, mouse
Settings: NCI-H146 xenograft in SCID/bg mice; 10 mg/kg IP QDx1
Protocol: Antibody MSL109 (an IgG1 antibody that binds to cytomegalovirus (CMV) glycoprotein H) was used as a control, both as a naked antibody and as an ADC (conjugated to the same synthon (CZ) as the chAb3, chAb18, and chAb13 antibodies). MSL109 is an isotype matched non-targeting control. The methods of this xenograft assay are described below.
NCI-H146 cells, NCI-1650 cells, and EBC-1 cells were obtained from the American Type Culture Collection (ATCC, Manassas, Va.). The cells were cultured as monolayers in RPMI-1640 (NCI-H146, NCI-H1650) or MEM (EBC-1) culture media (Invitrogen, Carlsbad, Calif.) that was supplemented with 10% Fetal Bovine Serum (FBS, Hyclone, Logan, Utah). To generate xenografts, 5×10^6 viable cells were inoculated subcutaneously into the right flank of immune deficient female SCID/bg mice (Charles River Laboratories, Wilmington, Mass.) respectively. The injection volume was 0.2 mL and composed of a 1:1 mixture of S MEM and Matrigel (BD, Franklin Lakes, N.J.). Tumors were size matched at approximately 200 mm^3. Antibodies and conjugates were formulated in 0.9% sodium chloride for injection and injected intraperitoneally. […] Therapy began within 24 hours after size matching of the tumors. Mice weighed approximately 22 g at the onset of therapy. Tumor volume was estimated two to three times weekly. Measurements of the length (L) and width (W) of the tumor were taken via electronic caliper and the volume was calculated according to the following equation: V=L×W^2/2. Mice were euthanized when tumor volume reached 3,000 mm3 or skin ulcerations occurred. Eight mice were housed per cage. Food and water were available ad libitum. Mice were acclimated to the animal facilities for a period of at least one week prior to commencement of experiments. Animals were tested in the light phase of a 12-hour light: 12-hour dark schedule (lights on at 06:00 hours). As described above, human IgG control antibody (MSL109) was used as a negative control agent.
To refer to efficacy of therapeutic agents, parameters of amplitude (TGImax), durability (TGD) of therapeutic response are used. TGImax is the maximum tumor growth inhibition during the experiment. Tumor growth inhibition is calculated by 100*(1−Tv/Cv) where Tv and Cv are the mean tumor volumes of the treated and control groups, respectively. TGD or tumor growth delay is the extended time of a treated tumor needed to reach a volume of 1 cm^3 relative to the control group. TGD is calculated by 100*(Tt/Ct−1) where Tt and Ct are the median time periods to reach 1 cm^3 of the treated and control groups, respectively.

| Molecule | TGD (%) | TGImax (%) |
| --- | --- | --- |
| MSL109: an IgG1 antibody that binds to cytomegalovirus (CMV) glycoprotein H; isotype matched non-targeting control [reference compound] | 0% | 0% |
| B1 | 100% | 90% |
| B3 | 104% | 81% |
| B2 | 109% | 87% |
